Measured values published in patent publication US20250043302A1, “MUTATED HYDROXYPHENYLPYRUVATE DIOXYGENASE POLYPEPTIDE, AND CODING GENE AND USE THEREOF” (BEIJING DABEINONG BIOTECHNOLOGY CO., LTD., priority 2021, published 2025).

Test system: Arabidopsis thaliana T1 plants
Test: Mesotrione tolerance of transgenic Arabidopsis thaliana T1 plants (spray, bleached leaf area grade, damage score)
Type: in vivo
Set-up: Scores: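 damage score 0-100 computed as Σ(N×S)/(T×M)×100 over grades 0-3 with higher meaning more damage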
Details: Arabidopsis thaliana T1 plants; for Grade 0 (classification and statistics of the grade of pesticide damage; number of plants) / Grade 1 (classification and statistics of the grade of pesticide damage; number of plants) / Grade 2 (classification and statistics of the grade of pesticide damage; number of plants) / Grade 3 (classification and statistics of the grade of pesticide damage; number of plants): 16 plants
From the text: T1 transformants were initially selected from the untransformed seeds using a glufosinate selection scheme. The Arabidopsis thaliana T1 plants (AsHPPD-02) into which the AsHPPD-02 nucleotide sequence was introduced, the Arabidopsis thaliana T1 plants (AsHPPDm-F372A-02) into which the AsHPPDm-F372A-02 nucleotide sequence was introduced, the Arabidopsis thaliana T1 plants (AsHPPDm-F383W-02) into which the AsHPPDm-F383W-02 nucleotide sequence was introduced, the Arabidopsis thaliana T1 plants (AsHPPDm-F372A-F383W-02) into which the AsHPPDm-F372A-F383W-02 nucleotide sequence was introduced, the Arabidopsis thaliana T1 plants (DBN11726N) into which the control recombinant expression vector DBN11726N was introduced, and the wild-type Arabidopsis thaliana plants (CK) (18 days after sowing) were sprayed respectively with topramezone at three concentrations (100 g ai/ha (four-fold field concentration, 4×), 200 g ai/ha (eight-fold field concentration, 8×), and 0 g ai/ha (water, 0×)), isoxaflutole at three concentrations (140 g ai/ha (two-fold field concentration, 2×), 280 g ai/ha (four-fold field concentration, 4×), and 0 g ai/ha (water, 0×)), and mesotrione at three concentrations (210 g ai/ha (two-fold field concentration, […]), 420 g ai/ha (four-fold field concentration, 4×), and 0 g ai/ha (water, 0×)), to determine the tolerance of Arabidopsis thaliana to the herbicides. The degree of damage caused by the herbicide was measured for each plant according to the proportion of bleached leaf area (the proportion of bleached leaf area=bleached leaf area/total leaf area×100%) 7 days after spraying (7 DAT): the case where there is basically no bleached phenotype is defined as grade 0, the case where the proportion of bleached leaf area is less than 50% is defined as grade 1, the case where the proportion of bleached leaf area is more than 50% is defined as grade 2, and the case where the proportion of bleached leaf area is 100% grade is defined as grade 3.
According to the method as described above in point 6 of Example 1, the aforementioned Arabidopsis thaliana T1 plants and wild-type Arabidopsis thaliana plants (CK) (18 days after sowing) were sprayed respectively with topramezone at three concentrations (25 g ai/ha (one-fold field concentration, 1×). 100 g ai/ha (four-fold field concentration, 4×), and 0 g ai/ha (water, 0×)), isoxaflutole at three concentrations (35 g ai/ha (half-fold field concentration, 0.5×). 70 g ai/ha (one-fold field concentration, 1×), and 0 g ai/ha (water, 0×)), and mesotrione at three concentrations (52.5 g ai/ha (half-fold field concentration, 0.5×), 105 g ai/ha (one-fold field concentration, 1×), and 0 g ai/ha (water, 0×)) to detect the tolerance of Arabidopsis thaliana to the herbicides.
According to the method as described above in point 6 of Example 1, the aforementioned Arabidopsis thaliana T1 plants and wild-type Arabidopsis thaliana plants (CK) (18 days after sowing) were sprayed with topramezone at three different concentrations (i.e., 100 g ai/ha (four-fold field concentration, 4×), 200 g ai/ha (eight-fold field concentration, 8×) and 0 g ai/ha (water, 0×)), isoxaflutole at three different concentrations (i.e., 140 g ai/ha (two-fold field concentration, 2×), 280 g ai/ha (four-fold field concentration, 4×) and 0 g ai/ha (water, 0×)), and mesotrione at three different concentrations (i.e., 210 g ai/ha (two-fold field concentration, 2×), 420 g ai/ha (four-fold field concentration, 4×) and 0 g ai/ha (water, 0×)) respectively to detect the herbicide tolerance of Arabidopsis thaliana. […]

B1: PfHPPD-02: nucleotide sequence encoding wild-type Pseudomonas fluorescens HPPD; vector DBN11770 (nucleic acid)
DNA: ATGGCCGATTTGTACGAGAACCCAATGGGACTCATGGGTTTCGAGTTCATTGAGTTCGCTTCCCCCACCCCAGGTACTTTGGAGCCTATTTTCGAGATCATGGGCTTCACTAAGGTTGCCACACACAGGTCTAAGAATGTGCATCTCTACCGCCAAGGAGAGATTAACCTGATCCTTAACAATGAGCCTAATAGCATCGCCTCATACTTCGCTGCTGAGCATGGTCCATCTGTTTGCGGCATGGCTTTCAGAGTGAAGGATTCACAAAAGGCCTACAACAGGGCTTTGGAGCTCGGCGCCCAGCCCATTCATATCGACACCGGACCTATGGAGCTGAATCTTCCTGCCATTAAGGGCATCGGCGGAGCTCCATTGTACCTCATTGATCGCTTCGGCGAGGGCTCCTCTATCTACGATATCGACTTCGTGTACCTGGAGGGCGTTGAGAGAAACCCTGTGGGAGCTGGTCTGAAGGTTATCGACCACCTTACTCATAATGTTTACAGAGGAAGGATGGTGTACTGGGCCAACTTCTACGAGAAGCTGTTCAATTTCCGCGAGGCTAGATACTTCGATATTAAGGGCGAGTACACAGGACTTACCTCCAAGGCCATGTCTGCTCCCGACGGTATGATTAGGATCCCATTGAACGAGGAGAGCTCAAAGGGCGCCGGACAGATTGAGGAGTTCCTCATGCAATTCAATGGTGAAGGCATCCAGCACGTTGCTTTCCTGACAGATGACCTTGTGAAGACCTGGGATGCCCTCAAGAAGATTGGCATGAGGTTCATGACCGCTCCACCTGACACTTACTACGAGATGTTGGAGGGACGCCTCCCTGATCATGGCGAGCCCGTTGACCAGCTGCAAGCTAGAGGAATCCTCCTGGATGGTTCCTCTGTGGAGGGCGACAAGAGGCTTTTGCTCCAAATTTTCAGCGAGACTCTTATGGGACCCGTGTTCTTCGAGTTCATCCAGAGGAAGGGCGATGACGGATTCGGCGAGGGCAACTTCAAGGCCCTGTTCGAGTCTATTGAGAGAGATCAGGTGAGGCGCGGCGTTCTTACAGCTGACTGA
modifications: PfHPPD-02 Nucleotide Sequence
notes: vector DBN11770
Mesotrione 52.5 g ai/ha
  Resistance evaluation: Non-resistant
  Scores: 100
  Grade 0 (classification and statistics of the grade of pesticide damage; number of plants): 0
  Grade 1 (classification and statistics of the grade of pesticide damage; number of plants): 0
  Grade 2 (classification and statistics of the grade of pesticide damage; number of plants): 0
  Grade 3 (classification and statistics of the grade of pesticide damage; number of plants): 16
Mesotrione 105 g ai/ha
  Resistance evaluation: Non-resistant
  Scores: 100
  Grade 0 (classification and statistics of the grade of pesticide damage; number of plants): 0
  Grade 1 (classification and statistics of the grade of pesticide damage; number of plants): 0
  Grade 2 (classification and statistics of the grade of pesticide damage; number of plants): 0
  Grade 3 (classification and statistics of the grade of pesticide damage; number of plants): 16

B2: PfHPPDm-F372A-02: nucleotide sequence encoding Pseudomonas fluorescens HPPD with F372A; vector DBN11771 (nucleic acid)
DNA: ATGGCCGATTTGTACGAGAACCCAATGGGACTCATGGGTTTCGAGTTCATTGAGTTCGCTTCCCCCACCCCAGGTACTTTGGAGCCTATTTTCGAGATCATGGGCTTCACTAAGGTTGCCACACACAGGTCTAAGAATGTGCATCTCTACCGCCAAGGAGAGATTAACCTGATCCTTAACAATGAGCCTAATAGCATCGCCTCATACTTCGCTGCTGAGCATGGTCCATCTGTTTGCGGCATGGCTTTCAGAGTGAAGGATTCACAAAAGGCCTACAACAGGGCTTTGGAGCTCGGCGCCCAGCCCATTCATATCGACACCGGACCTATGGAGCTGAATCTTCCTGCCATTAAGGGCATCGGCGGAGCTCCATTGTACCTCATTGATCGCTTCGGCGAGGGCTCCTCTATCTACGATATCGACTTCGTGTACCTGGAGGGCGTTGAGAGAAACCCTGTGGGAGCTGGTCTGAAGGTTATCGACCACCTTACTCATAATGTTTACAGAGGAAGGATGGTGTACTGGGCCAACTTCTACGAGAAGCTGTTCAATTTCCGCGAGGCTAGATACTTCGATATTAAGGGCGAGTACACAGGACTTACCTCCAAGGCCATGTCTGCTCCCGACGGTATGATTAGGATCCCATTGAACGAGGAGAGCTCAAAGGGCGCCGGACAGATTGAGGAGTTCCTCATGCAATTCAATGGTGAAGGCATCCAGCACGTTGCTTTCCTGACAGATGACCTTGTGAAGACCTGGGATGCCCTCAAGAAGATTGGCATGAGGTTCATGACCGCTCCACCTGACACTTACTACGAGATGTTGGAGGGACGCCTCCCTGATCATGGCGAGCCCGTTGACCAGCTGCAAGCTAGAGGAATCCTCCTGGATGGTTCCTCTGTGGAGGGCGACAAGAGGCTTTTGCTCCAAATTGCTAGCGAGACTCTTATGGGACCCGTGTTCTTCGAGTTCATCCAGAGGAAGGGCGATGACGGATTCGGCGAGGGCAACTTCAAGGCCCTGTTCGAGTCTATTGAGAGAGATCAGGTGAGGCGCGGCGTTCTTACAGCTGACTGA
modifications: PfHPPDm-F372A-02 Nucleotide Sequence
notes: vector DBN11771
Mesotrione 52.5 g ai/ha
  Resistance evaluation: Moderately
  Scores: 31
  Grade 0 (classification and statistics of the grade of pesticide damage; number of plants): 6
  Grade 1 (classification and statistics of the grade of pesticide damage; number of plants): 7
  Grade 2 (classification and statistics of the grade of pesticide damage; number of plants): 1
  Grade 3 (classification and statistics of the grade of pesticide damage; number of plants): 2
Mesotrione 105 g ai/ha
  Resistance evaluation: Poorly resistant
  Scores: 58
  Grade 0 (classification and statistics of the grade of pesticide damage; number of plants): 0
  Grade 1 (classification and statistics of the grade of pesticide damage; number of plants): 4
  Grade 2 (classification and statistics of the grade of pesticide damage; number of plants): 12
  Grade 3 (classification and statistics of the grade of pesticide damage; number of plants): 0

B3: PfHPPDm-F372A-F383W-02: nucleotide sequence encoding Pseudomonas fluorescens HPPD with F372A+F383W; vector DBN11773 (nucleic acid)
DNA: ATGGCCGATTTGTACGAGAACCCAATGGGACTCATGGGTTTCGAGTTCATTGAGTTCGCTTCCCCCACCCCAGGTACTTTGGAGCCTATTTTCGAGATCATGGGCTTCACTAAGGTTGCCACACACAGGTCTAAGAATGTGCATCTCTACCGCCAAGGAGAGATTAACCTGATCCTTAACAATGAGCCTAATAGCATCGCCTCATACTTCGCTGCTGAGCATGGTCCATCTGTTTGCGGCATGGCTTTCAGAGTGAAGGATTCACAAAAGGCCTACAACAGGGCTTTGGAGCTCGGCGCCCAGCCCATTCATATCGACACCGGACCTATGGAGCTGAATCTTCCTGCCATTAAGGGCATCGGCGGAGCTCCATTGTACCTCATTGATCGCTTCGGCGAGGGCTCCTCTATCTACGATATCGACTTCGTGTACCTGGAGGGCGTTGAGAGAAACCCTGTGGGAGCTGGTCTGAAGGTTATCGACCACCTTACTCATAATGTTTACAGAGGAAGGATGGTGTACTGGGCCAACTTCTACGAGAAGCTGTTCAATTTCCGCGAGGCTAGATACTTCGATATTAAGGGCGAGTACACAGGACTTACCTCCAAGGCCATGTCTGCTCCCGACGGTATGATTAGGATCCCATTGAACGAGGAGAGCTCAAAGGGCGCCGGACAGATTGAGGAGTTCCTCATGCAATTCAATGGTGAAGGCATCCAGCACGTTGCTTTCCTGACAGATGACCTTGTGAAGACCTGGGATGCCCTCAAGAAGATTGGCATGAGGTTCATGACCGCTCCACCTGACACTTACTACGAGATGTTGGAGGGACGCCTCCCTGATCATGGCGAGCCCGTTGACCAGCTGCAAGCTAGAGGAATCCTCCTGGATGGTTCCTCTGTGGAGGGCGACAAGAGGCTTTTGCTCCAAATTGCTAGCGAGACTCTTATGGGACCCGTGTGGTTCGAGTTCATCCAGAGGAAGGGCGATGACGGATTCGGCGAGGGCAACTTCAAGGCCCTGTTCGAGTCTATTGAGAGAGATCAGGTGAGGCGCGGCGTTCTTACAGCTGACTGA
modifications: PfHPPDm-F372A-F383W-02 Nucleotide Sequence
notes: vector DBN11773
Mesotrione 52.5 g ai/ha
  Resistance evaluation: Moderately
  Scores: 21
  Grade 0 (classification and statistics of the grade of pesticide damage; number of plants): 7
  Grade 1 (classification and statistics of the grade of pesticide damage; number of plants): 8
  Grade 2 (classification and statistics of the grade of pesticide damage; number of plants): 1
  Grade 3 (classification and statistics of the grade of pesticide damage; number of plants): 0
Mesotrione 105 g ai/ha
  Resistance evaluation: Moderately
  Scores: 33
  Grade 0 (classification and statistics of the grade of pesticide damage; number of plants): 5
  Grade 1 (classification and statistics of the grade of pesticide damage; number of plants): 6
  Grade 2 (classification and statistics of the grade of pesticide damage; number of plants): 5
  Grade 3 (classification and statistics of the grade of pesticide damage; number of plants): 0
